Source: the supplement of paper PMC7877785
± gives the uncertainty stated by the source.

Assay: self-splicing fitness, log relative to wild type (ln ratio); higher = more splicing; Tetrahymena group I intron in knt gene, E. coli kanamycin selection, DiMSum; sequences stand for … in CUCUCU…GGAGGGAAAAGUUAUCAGGCAUGCACCUGGUAGCUAGUCUUUAAACCAAUAGAUUGCAUCGGUUUAAAAGGCAAGACCGUCAAAUUGCGGGAAAGGGGUCAACAGCCGUUCAGUACCAAGUCUCAGGGGAAACUUUGAGAUGGCCUUGCAAAGGGUAUGGUAAUAAGCUGACGGACAUGGUCCUAACCACGCAGCCAAGUCCUAAGUCAACAGAUCUUCUGUUGAUAUGGAUGCAGUUCACAGACUAAAUGUCGGUCGGGGAAGAUGUAUUCUUCUCAUAAGAUAUAGUCGGACCUCUCCUUAAUGGGAGCUAGCGGAUGAAGUGAUGCAACACUGGAGCCGCUGGGAACUAAUUUGUAUGCGAAAGUAUAUUGAUUAGUUUUGGAGUACUCGUGGUCG
Outline: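 DiMSum derived fitness as the error-weighted combination of fold changes across replicates, kanamycin versus no kanamycin, normalised to wild type. E. coli BL21(DE3) held the library, which randomised all eight P1ex-region intron nucleotides within the knt kanamycin-resistance gene on pET-22b(+). Six replicate transformations grew overnight at 37°C or 30°C on LB agar with or without 25 μg/mL kanamycin, also containing 100 μg/mL carbenicillin, 50 μM IPTG and 0.2% rhamnose, and pooled colonies were amplicon-sequenced on an Illumina HiSeq 2500.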

Sequence | self-splicing fitness (ln) (30 °C) | self-splicing fitness (ln) (37 °C)
GUUCAGCAAUAUUACGCUUG | -1.54 ± 0.081 | -0.171 ± 0.089
CGUGAGCAAUAUUACGCGCC | -2.85 ± 0.36 | -1.95 ± 0.28
AGCGAGCAAUAUUACGGCCA | -1.8 ± 0.099 | -1.27 ± 0.078
GAAAAGCAAUAUUACGUUCC | -3.72 ± 0.26 | -2.95 ± 0.24
AUUAAGCAAUAUUACGAACC | -1.35 ± 0.29 | -0.847 ± 0.29
UGCCAGCAAUAUUACGCGGU | -2.55 ± 0.3 | -2.45 ± 0.25
UAGGAGCAAUAUUACGCCUG | -3.57 ± 0.47 | -1.23 ± 0.33
CGAAAGCAAUAUUACGACCG | -0.423 ± 0.12 | -0.183 ± 0.15
CACGAGCAAUAUUACGGUCC | -4.36 ± 0.28 | -3.16 ± 0.33
CCCAAGCAAUAUUACGGUUA | -2.28 ± 0.12 | -2.38 ± 0.16
AUUAAGCAAUAUUACGACAC | -0.804 ± 0.13 | -0.46 ± 0.14
GGCCAGCAAUAUUACGCGUC | -2.97 ± 0.12 | -1.75 ± 0.15
GGAUAGCAAUAUUACGCGCU | -2.14 ± 0.23 | -0.904 ± 0.23
UUAAAGCAAUAUUACGGACC | -2.27 ± 0.18 | 0.778 ± 0.16
GCAGAGCAAUAUUACGGAGU | -3.24 ± 0.2 | -2.05 ± 0.27
UAGAAGCAAUAUUACGACGU | -1.27 ± 0.1 | -0.768 ± 0.098
UCCCAGCAAUAUUACGAGAG | -3.41 ± 0.29 | -2.14 ± 0.21
CUUGAGCAAUAUUACGCGAC | -3.55 ± 0.28 | -0.595 ± 0.16
UCUCAGCAAUAUUACGCGGU | -2.89 ± 0.26 | -2.3 ± 0.28
UAUCAGCAAUAUUACGGUCG | -0.0229 ± 0.059 | 0.259 ± 0.066
GAGGAGCAAUAUUACGGUAU | -2.88 ± 0.35 | -1.25 ± 0.45
ACCGAGCAAUAUUACGUCCG | -4.36 ± 0.24 | -1.5 ± 0.14
AGGCAGCAAUAUUACGUACU | -0.408 ± 0.079 | 0.323 ± 0.12
AAAAAGCAAUAUUACGUUGG | -3.28 ± 0.14 | -1.15 ± 0.11
CAAGAGCAAUAUUACGGCGC | -3.56 ± 0.27 | -2.17 ± 0.26
CGCUAGCAAUAUUACGCGGG | -4.55 ± 0.26 | -2.08 ± 0.16

Sequence | self-splicing fitness (ln) (30 °C) | self-splicing fitness (ln) (37 °C)
GCCUAGCAAUAUUACGAGCC | -1.8 ± 0.15 | -1.67 ± 0.23
AUGCAGCAAUAUUACGGCCA | -0.753 ± 0.14 | 0.267 ± 0.14
CGCGAGCAAUAUUACGGUGU | -3.91 ± 0.17 | -2.34 ± 0.15
CGGGAGCAAUAUUACGUAAG | -1.46 ± 0.17 | -0.321 ± 0.18
CGCCAGCAAUAUUACGCUAA | -2.34 ± 0.15 | -1.29 ± 0.14
CCCUAGCAAUAUUACGUUCU | -4.33 ± 0.23 | -3.61 ± 0.19
CAGCAGCAAUAUUACGGCCU | -0.922 ± 0.1 | -0.208 ± 0.12
GGCAAGCAAUAUUACGAUCU | -0.22 ± 0.097 | -0.162 ± 0.13
UGCUAGCAAUAUUACGCAUC | -3.95 ± 0.21 | -2.45 ± 0.17
CGUUAGCAAUAUUACGUUCA | -0.69 ± 0.078 | -0.192 ± 0.083
GCCUAGCAAUAUUACGGCUA | -1.2 ± 0.46 | -2.49 ± 0.39
AAAGAGCAAUAUUACGUAGG | -3.36 ± 0.15 | -2.76 ± 0.25
AUCGAGCAAUAUUACGGGAU | -2.82 ± 0.15 | -1.78 ± 0.19
CCCCAGCAAUAUUACGGCGU | -2.22 ± 0.073 | -1.81 ± 0.1
GCAAAGCAAUAUUACGUACU | -0.928 ± 0.067 | 0.299 ± 0.095
GGCCAGCAAUAUUACGGGGA | -0.876 ± 0.068 | -0.469 ± 0.073
ACGUAGCAAUAUUACGGCAC | – | -1.73 ± 0.42
GUGCAGCAAUAUUACGGCUG | -4.5 ± 0.34 | -2.36 ± 0.28
GGUCAGCAAUAUUACGAAUU | 0.104 ± 0.078 | 0.599 ± 0.091
GGUAAGCAAUAUUACGGACG | 0.0239 ± 0.12 | 0.484 ± 0.15
AUGCAGCAAUAUUACGGGCC | -1.43 ± 0.1 | -1.02 ± 0.11
AAGCAGCAAUAUUACGGGAC | -4.44 ± 0.46 | -3.38 ± 0.39
AUGCAGCAAUAUUACGAUAA | -1.55 ± 0.1 | 0.424 ± 0.092
AGGCAGCAAUAUUACGGGGG | -3.34 ± 0.21 | -2.98 ± 0.23
CUAUAGCAAUAUUACGGACC | – | -1.23 ± 0.34
ACUAAGCAAUAUUACGUCUG | -1.37 ± 0.084 | -0.847 ± 0.1

Sequence | self-splicing fitness (ln) (30 °C) | self-splicing fitness (ln) (37 °C)
CGGAAGCAAUAUUACGUGCU | -3.85 ± 0.24 | -2.32 ± 0.23
CAAAAGCAAUAUUACGCUUA | -3.17 ± 0.23 | -2.17 ± 0.15
CGUAAGCAAUAUUACGACUC | -3.64 ± 0.3 | -0.95 ± 0.17
CGAAAGCAAUAUUACGAUUG | -0.934 ± 0.074 | -0.262 ± 0.1
CGGAAGCAAUAUUACGCCGU | -2.88 ± 0.44 | -1.91 ± 0.28
ACCAAGCAAUAUUACGAGGU | -3.76 ± 0.21 | -2.22 ± 0.18
UCUUAGCAAUAUUACGCACU | -2.05 ± 0.33 | -0.732 ± 0.36
GACAAGCAAUAUUACGCGGG | -2.84 ± 0.095 | -2.52 ± 0.14
GCACAGCAAUAUUACGAUCG | -1.08 ± 0.05 | -0.27 ± 0.069
GCGCAGCAAUAUUACGAAGG | -1.79 ± 0.087 | -0.733 ± 0.12
AGCAAGCAAUAUUACGUGAC | -2.49 ± 0.2 | -1.85 ± 0.27
CGCCAGCAAUAUUACGGGUC | -2.81 ± 0.14 | -2.6 ± 0.17
AUGGAGCAAUAUUACGGGUA | -3.28 ± 0.27 | -3.06 ± 0.35
CCCUAGCAAUAUUACGUGUA | -3.49 ± 0.25 | -2.94 ± 0.21
CAACAGCAAUAUUACGGAAA | -3.2 ± 0.17 | -2.27 ± 0.18
ACUAAGCAAUAUUACGAGGG | -2.55 ± 0.17 | -2.31 ± 0.24
GUAGAGCAAUAUUACGCUGG | -1.56 ± 0.17 | -1.53 ± 0.24
GGUUAGCAAUAUUACGGCGU | -0.725 ± 0.1 | 0.137 ± 0.13
CGCUAGCAAUAUUACGAAAG | -1.17 ± 0.091 | -0.395 ± 0.1
GUACAGCAAUAUUACGGACU | -1.74 ± 0.062 | -0.781 ± 0.081
GAUGAGCAAUAUUACGCUAG | – | -1.33 ± 0.39
AGCUAGCAAUAUUACGUUCG | -2.57 ± 0.14 | -2.41 ± 0.23
CGGUAGCAAUAUUACGAUUU | -2.17 ± 0.17 | -0.333 ± 0.15
UAUUAGCAAUAUUACGGAGG | -2.95 ± 0.28 | -1.84 ± 0.34
UGCCAGCAAUAUUACGGCUG | -3.47 ± 0.15 | -2.17 ± 0.16
